Assay: yeast display, Sf9 membrane polyspecificity reagent, FACS + sequencing; frameworks hold sequencing errors
Method in brief: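 Galactose-induced (36–48 hours) yeast carrying a synthetic nanobody display library were exposed to 10% biotinylated, detergent-solubilized Sf9 membrane reagent at 4 °C for 1 hour. FACS followed streptavidin microbead enrichment, using low and high (top ~1%) gates for expression (anti-HA) and reagent binding (streptavidin). Colony PCR, MiSeq 2 × 250 sequencing and CDR-length filtering followed. Labels for polyreactivity reflect the gate of origin.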

Row | Sequence | polyreactivity (PSR sort gate)
1 | QVQLVESGGGLVQAGGSLRLSCAASGFTFDYYAMGWYRQAPGKERELVAAITSDGSTYYADSVKGRFTISRDNAKNTVYLQMNSLKPEDTAVYYCAADGISLYATAYDYWGQGTQVTVSS | low polyreactivity
2 | QVQLVESGGGLVQAGGSLRLSCAASGFTFEEYAMGWYRQAPGKERELVAAIDYTVGSTYYADSVKGRFTISRDNAKNTVYLQMNSLKPEDTAVYYCNVDLSYSFNSAYGYWGQGTQVTVSS | low polyreactivity
3 | QVQLVESGGGLVQAGGSLRLSCAASGFTFEKNAMGWDRQAPGKERELGAAISRGGSTYADSVKGRFTISRDNAKNTVHLQINSLKPEDTAVYYCAADTVYIFSSAINGEFGDWGQGTQVTVSS | low polyreactivity
4 | QVQLVESGGGLVQAGGSLRLSCAASGFTFEKYSMGWYRQAPGKERELVAAITQSAGSTYADSVKGRFTISRDNAKNTVYLQMISLKPEDTAVYYFAARYRYPYYARYGYWGQGTQVTVSS | high polyreactivity
5 | QVQLVESGGGLVQAGGSLRLSCAASGFTFEWYTMGWYRQAPGKERELVADISGDGTTYYADSVKGRFTISRDNAKNTLYLQMNSLKPEDTAVYYCAARTVGRKAGFDYWGQGTQVTVSS | high polyreactivity
6 | QVQLVESGGGLVQAGGSLRLSCAASGFTFEYNAMGWYRQAPGKERELVAAISRSGGSTYYADSVKGRFTISRDNAKNTVYLQMNSLIPEDTAVYYCAAEPYPLPSYGYWGQGTQVTVSS | high polyreactivity
7 | QVQLVESGGGLVQAGGSLRLSCAASGFTFEYYAMGWYRQAPGKEREFVAAISARGDSTYYADSVKGRFTISRDNAKNTVYLQMNSLKPEDSAVYYCAKKTSPRRYYYWGQGTQVTVSS | high polyreactivity
8 | QVQLVESGGGLVQAGGSLRLSCAASGFTFFDNAMGWYRQAPGKERELVAVISSGGRTYYADSVKGRFTISRDNAKNTVYLQMNSLTPEDTAVYYCNAARAQRVKYDYWGQGTQVTVSS | high polyreactivity
9 | QVQLVESGGGLVQAGGSLRLSCAASGFTFFGNAMGWYRQAPGKERELVAAITGRAGRTYYADSVKGRFTISRDNAKNTVYLQMNSLKPEDTAVYYCAAKIRTSDMGYWGQGTQVTVSS | high polyreactivity
10 | QVQLVESGGGLVQAGGSLRLSCAASGFTFFHNAMGWYRQAPGKERELVAAITSGGNTYYADSVKGRFTISRDNAKNTVYLQMNSLKPEDTAVYFCNAVISRVVRYEYWGQGTQVTVSS | high polyreactivity
11 | QVQLVESGGGLVQAGGSLRLSCAASGFTFFHYAMGWYRQAPGKERELVAAIDYSAGSTYYADSVKGRFTISRDNAKNTVYLQMNSMKPEDTAVYYCAADARTSRGRRYYYWGQGTQVTVSS | low polyreactivity
12 | QVQLVESGGGLVQAGGSLRLSCAASGFTFFKYAMGWYRQAPGKERELVAAISSSGGSTYYADSVKGRFTISRDNAKNTVYLQMNSLKPEDTAVYYCNRPAAVYFKLVTAYDYWGQGTQVTVSS | high polyreactivity
13 | QVQLVESGGGLVQAGGSLRLSCAASGFTFFLYAMGWYRQAAGKERELGAAINSRGGSTYYADSVKGRFTLSRDNAKNTVYLQMNSLKPEDTAVYYCAAYIPRSYCGYDYGGQGTQVTVSS | high polyreactivity
14 | QVQLVESGGGLVQAGGSLRLSCAASGFTFFLYAMGWYRQAPGKERELVARISSGRDTYYADSVKGRFTISRDNAKKTVYLQMNSLKPEDTAVYYCAVAFWFGYRYYYWGQGTQVTVSS | high polyreactivity
15 | QVQLVESGGGLVQAGGSLRLSCAASGFTFFPNAKGWYRQAPGKERELVADITDGGSTNYADSVKGRFTISRDNAKNTVYLQMNSLKPEDTAVYYCNADWYGWFGGYEYWGQGTQVTVSS | high polyreactivity
16 | QVQLVESGGGLVQAGGSLRLSCAASGFTFFRYAMGWYRQAPGKERELVASITSGGSTNYADSVKGRFTISRDNAKNTVYLQMNSLKPEDTAVYYCAAGSSFFRWVYEATGFYYWGQGTQVTVSS | high polyreactivity
17 | QVQLVESGGGLVQAGGSLRLSCAASGFTFFRYAMGWYSQAPGKERELVATITRGGSTNYADSVKGRFTISRDNAKNTVYLQMNSLQPVDTAVYYCNKDKKTPTFDYWGQGTQVTVSS | low polyreactivity
18 | QVQLVESGGGLVQAGGSLRLSCAASGFTFFVYAMGWYRQAPGKERELVAVITSGGTTNYADSVKGRFTISRDNAKNTVYLQMNSLKPEDTAVYYCATDNGGIPKYVPYDFWGQGTQVTVSS | high polyreactivity
19 | QVQLVESGGGLVQAGGSLRLSCAASGFTFFYNAMGWYRQAPGKEREFVAAISGRGGTTYYADSVKGRFTISRDNAKNTVYLQMNSLKPEDTAVYYCAAYYRGYAYNYWGQGTQVTLSS | high polyreactivity
20 | QVQLVESGGGLVQAGGSLRLSCAASGFTFFYVYTMGWYRQAPGKEREFVAAIDWTGRTYYADSVKGRFTISRDNAKNTVYLQMNSLKPEDTAVYYCNADVAPGIFYGYDSWGQGTQVTVSS | low polyreactivity
21 | QVQLVESGGGLVQAGGSLRLSCAASGFTFGDYAMGWYRQAPGKERELVAAITSTGGSTYYADSVKGRFTISRDNEKHSVYLQMNCLKPEDTAVYYCAKPDYYRMGYWGQGTQVTVCS | low polyreactivity

Row | Sequence | polyreactivity (PSR sort gate)
22 | QVQLVESGGGLVQAGGSLRLSCAASGFTFGDYAMGWYRQAPGKEWELVAAISWSAGSTYYADSVKGRFTISRDNAKNTVYVQMNSLKPEDTAVYYCAADDSATIEDDYWGQGTQVTVSS | high polyreactivity
23 | QVQLVESGGGLVQAGGSLRLSCAASGFTFGENAMGWYRQAPGKERELVATISDSGDSTYYADSVKGRFTISRDNAQNTVYLQMNSLKPEDTAVYYCAAPLPHRGYDEGYWGQGTQVTVSS | low polyreactivity
24 | QVQLVESGGGLVQAGGSLRLSCAASGFTFGEYAMGWYRQQPGKERELVAAISSSSGSTYYADSVKGRFTISRDNAKYTVYLQMNSLKPEDTAVYYCAATTSPRSARYYYWGQGTQVTVSS | high polyreactivity
25 | QVQLVESGGGLVQAGGSLRLSCAASGFTFGGNAMGWYRQAPGKERELVADITWSGGSTYYADSVKGRFTISRDNAKNTVYLQMNSLKPEDTAVYYCNTVRYPSSNSGLDYWGQGTQVTVSS | high polyreactivity
26 | QVQLVESGGGLVQAGGSLRLSCAASGFTFGGYAMGWYRQAPGKERELVAAIRSTGDTTYYADSVKGRFTISRDNAKNTVYVQMNSLKPEDTAVYYCNADLSRDNDFDYWGQGTQVTVSS | low polyreactivity
27 | QVQLVESGGGLVQAGGSLRLSCAASGFTFGGYAMGWYRQAPGKERELVAAITGSGGNTFYADSVKGRFTISRDNAKNTVYLQMNSLKPEDTAVYYCAALAPYIGGVDYDYWGQGTQVTVSS | low polyreactivity
28 | QVQLVESGGGLVQAGGSLRLSCAASGFTFGGYAMGWYRQAPGKERELVAAITRSGGRTYYADSVKGRFTISRDNAKNTVYLQMNSLKPEDTAVYYCNAYVIRALGYGGYDYWGQGTQVTVSS | high polyreactivity
29 | QVQLVESGGGLVQAGGSLRLSCAASGFTFGGYARGWSRQAPRTERELVAAISSSAGRTYYADSVKGRFTISRDNAKNTVYVQMNRLKPEDTAVYYCNTGGVYGPRRYYYWGQGTQVTVSS | high polyreactivity
30 | QVQLVESGGGLVQAGGSLRLSCAASGFTFGHYAMGWYRQAPGKERELVAAISKSGTRTYYADSVKGRFTISRDNAKNTVYLLMNSLKPEDTAVYYCATTAYNGYDYWGQGTQVTVSS | high polyreactivity
31 | QVQLVESGGGLVQAGGSLRLSCAASGFTFGHYAMGWYRQAPGKERELVAAISRSGGTTSYADSVKGRFTISRDNAKNTVYLQMNSLKPEDTAVYYCNKDYIWARYGGGRDYWGQGTQVTVSS | low polyreactivity
32 | QVQLVESGGGLVQAGGSLRLSCAASGFTFGHYVMGWSRQAPGKERELVAAITLSGGGTYYADSVKGRFTISRDNAKNTVYLQMNSLKPEDTAVYYCAAVGGEHAKKTYSRYKVDYWGQGTQVTVSS | low polyreactivity
33 | QVQLVESGGGLVQAGGSLRLSCAASGFTFGLYGMGWYRQAPGKERELVAAISSSGGDTYYADSVKGRFTISRDNAKNTVYLQMNSLKPEDTAVYYCAADRLPQYDYWGQGTQVTVSS | low polyreactivity
34 | QVQLVESGGGLVQAGGSLRLSCAASGFTFGNYVMGWYRQAPGKERELVAAISKRGTSTYYADSVKGRFTISRDNAKNTVYLQMNSLKPEDTAVYYCAADGVYSHKDGLWGQGTQVTVSS | high polyreactivity
35 | QVQLVESGGGLVQAGGSLRLSCAASGFTFGPNTMGWYRQAAGKERELVATITWRGDGSTYYADSVKGRFTISRDNAKNTVYLQMNSLKPEDTAVYYCAAVIRPFSRRDMYYWGQGTQVTVSS | low polyreactivity
36 | QVQLVESGGGLVQAGGSLRLSCAASGFTFGPYAMGWYRQAPGKERELVAGITWSGASTYYADSVKGRFTISRDNAKNSVYLQMNSLKPEDTAVYYCARYYRLGSRYDYWGQGTQVTVSS | low polyreactivity
37 | QVQLVESGGGLVQAGGSLRLSCAASGFTFGPYDMGWYRQAPGKERELVAVIIGGDSTNYADSVKGRFTISRDNAKNSVYLQMNSLKPEDTAVYYCAADYIDRVGWMDYWGQGTQVTVSS | low polyreactivity
38 | QVQLVESGGGLVQAGGSLRLSCAASGFTFGRYALGWYRQPPGKERELVAVISWSGVSTYYADSVKGRFTISRDNAKNTVYLQMNSLKPEDTAVYYCNKRSYHYPYGYDYWGQGTQVTVSS | high polyreactivity
39 | QVQLVESGGGLVQAGGSLRLSCAASGFTFGRYAMGRYRPAPGKVRELVATITRTGSTNYADSVKGRFTISRDNAKNTVDLQMHSLKPEDTAVYYCNAVYSACRYVKYDYWGQGTQVTVSS | low polyreactivity
40 | QVQLVESGGGLVQAGGSLRLSCAASGFTFGRYAMGWYRQAPGKERELVAAIATRGGSTYYADSVKGRFTISRDNAMNTVYLQMNSLKPEDTAVYYCAAGGYYVRYDYWGQGTQVTVSS | high polyreactivity
41 | QVQLVESGGGLVQAGGSLRLSCAASGFTFGRYAMGWYRQAPGKERELVAAISYSGGSTYYADSVKGRFTISRDNAKNTVYLQMNSLKPEDTAVYYCAARDSYWSVYYWGQGTQVTVSS | high polyreactivity

Source: the nanobody polyreactivity screen of Harvey et al. (2022)
